The values that follow come from paper PMC2777437.

The term Kd denotes the equilibrium constant for the complex coming apart.

Data set [1] deals with T1, RHD-CBFb complex (UniProt Q01196;Q13951 50-178;1-141). In words: fluorescence anisotropy.
The target in data set [2] is T1, RHD-CBFb complex. The experiment in a line: fluorescence anisotropy. This is another data set of the same source. For orientation: Fluorescence polarisation rises when a labelled molecule tumbles more slowly, as on binding a larger partner.

T1 sequence (Q01196 50-178, chain 1 of 2): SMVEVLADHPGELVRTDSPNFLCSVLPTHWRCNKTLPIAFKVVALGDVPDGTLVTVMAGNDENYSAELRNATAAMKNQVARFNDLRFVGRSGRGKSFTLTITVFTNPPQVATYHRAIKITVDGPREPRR
T1 sequence (Q13951 1-141, chain 2 of 2): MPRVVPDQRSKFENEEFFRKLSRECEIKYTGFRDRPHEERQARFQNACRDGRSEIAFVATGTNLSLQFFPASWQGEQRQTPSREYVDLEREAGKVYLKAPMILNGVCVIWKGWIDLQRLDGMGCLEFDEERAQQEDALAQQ

Molecule GGUCCAGGCGCGUUAGCAAAACCGCGGAUC (structured_RNA, none) [Apt45A] returned a dissociation constant (Kd) with RHD-CBFb complex [1] of 162 ± 102 nM. The same measure, in the same setting: as for AUUACCGGCGAGUUUUGAACCGCGUAAU (structured_RNA, none) [Apt28A], the figure is 108 ± 34 nM.

For the molecule ATTACCGGCGAGTTTTGAACCGCGTAAT (ssDNA) [DNA Apt28A], in the data set with RHD-CBFb complex [2], the binding result is given as “no binding”.
